# Source: US8404644 (MEAT AND LIVESTOCK AUSTRALIA, dated 2013)
# B1: bovine βB2 crystallin (other)
# chain: ASDHQTQAGKPQPLNPKIIIFEQENFQGHSHELNGPCPNLKETGVEKAGSVLVQAGPWVGYEQANCKGEQFVFEKGEYPRWDSWTSSRRTDSLSSLRPIKVDSQEHKITLYENPNFTGKKMEVIDDDVPSFHAHGYQEKVSSVRVQSGTWVGYQYPGYRGLQYLLEKGDYKDSGDFGAPQPQVQSVRRIRDMQWHQRGAFHPSS
# modifications: N-terminus acetylated (as extracted from bovine eye)
# notes: Native intact protein purified from bovine eye lens; Wound Heal 1 = gel filtration at pH 5.3; Wound Heal 2 = 100 kDa retentate plus gel filtration, and also holds some βA3 crystallin; also called Crystallin βB2; Wound Heal 1
# Biological target: the molecule itself
# Experiment: gel filtration on Sephacryl 300 HR at pH 5.3 (self-association, homodimer)
protein,measurement,value
B1,binding result,binds
